The target in the experiment is FLAG-hH2A.D wild-type nucleosome, 147 bp 601 DNA (ELYS pulldowns) (human, UniProt P20671;P62807;Q71DI3;P62805). The experiment in a line: pull-down.

B1: MBP-His6-TEV-ELYS^C, C-terminal fragment of human ELYS (2157-2275) (domain or fragment)
chain: SSQFVISPPALRSRQKNTSNKNKLEDELKDDAQSVETLGKPKAKRIRTSKTKQASKNTEKESAWSPPPIEIRLISPLASPADGVKSKPRKTTEVTGTGLGRNRKKLSSYPKQILRRKML
B1: the binding result was “binds”.

(Values after PMC7515726 (Nucleic Acids Research, 2020).)
